This note sets out measurements from US20180280520A1 (NAVIGEN, published 2018).

The term Kd denotes the concentration at which binding is half-saturated. A low value points to tighter binding.

Experiment [1] concerns the target T1, BPEG2-GKG-RSVB-IZN45 Full Mut (respiratory syncytial virus, RSV-B, N-terminal biotinPEG2; C-terminal amide).
T1 construct: also called IZN45_Mut; mutant target
T1 chain: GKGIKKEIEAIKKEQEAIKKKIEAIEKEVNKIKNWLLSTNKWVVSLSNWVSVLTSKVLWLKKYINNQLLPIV
Kind of experiment: SPR. Background: SPR reads the build-up and loss of mass on a sensor chip optically.

The target in experiment [2] is T1, BPEG2-GKG-RSVB-IZN45 Full Mut. Kind of experiment: phage ELISA. Background: ELISA stands for enzyme-linked immunosorbent assay.
The target of experiment [3] is RSV F protein (RSV-A) (respiratory syncytial virus, RSV-A) (UniProt P03420). Kind of experiment: cell-based or functional assay.
In the next experiment the target is RSV F protein (RSV-A) (respiratory syncytial virus, RSV-A, UniProt P03420 26-574). Description: cell-based or functional assay.
Experiment [4] addresses T1, BPEG2-GKG-RSVB-IZN45 Full Mut. Kind of experiment: phage ELISA of clonal phage, percent bound.
For the next experiment, the target named is T2, IZN45_WT_Bot (N-terminal biotinPEG2; C-terminal amide).
T2 construct: also called BPEG2-GKG-RSVB-IZN45 wt bot
T2 N-trimer mimic monomer (IZ fused to N45, partial groove mutant): T1 chain with W49G, W59D, K62N
Description: phage ELISA of clonal phage, percent bound.

Another experiment concerns the target T3, BPEG2-GKG-RSVB-IZN45 (respiratory syncytial virus, RSV-B, N-terminal biotinPEG2; C-terminal amide).
T3 chain: T1 chain with W35A, W42A, W49G, W59D, K62N
Kind of experiment: SPR, biotinylated L-IZN45 on NeutrAvidin chip.

Positions count from the first letter of the chain named. Values joined by “and” are separate entries in the source; they are usually repeats but may differ in a detail not shown here. Equal entries are not always repeated. Positions of bridges follow the written chain, without caps; N, C: chain ends. Non-standard residues stand in square brackets, D forms with d. Primed or numbered codes have the meaning given here. No end group written: not given here. PEG4′ = not defined here; PEG6′ = not defined here; PEG8′ = not defined here

Sequence of RSV F protein (RSV-A) (respiratory syncytial virus, RSV-A) (P03420 26-574): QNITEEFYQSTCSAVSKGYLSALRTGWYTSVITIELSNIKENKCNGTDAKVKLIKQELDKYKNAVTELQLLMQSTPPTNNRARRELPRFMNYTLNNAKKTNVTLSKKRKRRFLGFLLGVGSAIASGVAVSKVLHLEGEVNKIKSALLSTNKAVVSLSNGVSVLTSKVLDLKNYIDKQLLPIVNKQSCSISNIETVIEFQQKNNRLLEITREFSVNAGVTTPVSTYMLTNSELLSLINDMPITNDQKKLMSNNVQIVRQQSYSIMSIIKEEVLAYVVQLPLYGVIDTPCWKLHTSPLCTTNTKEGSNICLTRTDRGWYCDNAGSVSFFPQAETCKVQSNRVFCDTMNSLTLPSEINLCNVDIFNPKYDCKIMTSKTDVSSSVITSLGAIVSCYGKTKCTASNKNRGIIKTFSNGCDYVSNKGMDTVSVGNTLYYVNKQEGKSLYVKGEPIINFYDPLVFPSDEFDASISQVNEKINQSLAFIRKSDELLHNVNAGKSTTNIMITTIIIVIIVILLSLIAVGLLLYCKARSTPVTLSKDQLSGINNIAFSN

B1: T108 (peptide)
peptide: YDPLVFPSDEFDASISQVNEKINQSLAFIRKSDEL
notes: domain: 35-residue RSV C-peptide T108; also called RSV C-peptide T108
Consider B1, for which, in experiment [1], the binding result is reported as “no binding”.

B2: control phage displaying T108 (peptide)
peptide: B1 peptide
notes: domain: 35-residue RSV C-peptide T108
On to B2, for which, in experiment [2], the binding result is on record as “no binding”.

B3: Chol-Ac-K(PEG6)DDG-RSVP28-trimer (peptide)
peptide: Ac-[dK][PEG6′][dD][dD]G[dH][dA][dC][dV][dN][dR][dP][dE][dW][dL][dL][dD][dW][dC][dD][dH]-NH2
modifications: disulfide 8-19; also: cholesterol conjugate, trimer
In experiment [3], B3 displayed an IC50, syncytia reduction assay of 240 nM.

B4: Chol-Ac-K(PEG6)DDG-RSVP31-trimer (peptide)
peptide: Ac-[dK][PEG6′][dD][dD]G[dA][dE][dC][dV][dN][dR][dP][dE][dW][dL][dL][dD][dW][dC]G[dT]-NH2
modifications: disulfide 8-19; also: cholesterol conjugate, trimer
As for B4, the IC50, syncytia reduction assay in experiment [3] is 65 nM and 54 nM and 24 nM.

B5: Chol-Ac-K(PEG8)G-RSVP32-GDD-trimer (peptide)
peptide: Ac-[dK][PEG8′]GG[dE][dC][dV][dN][dR][dP][dE][dW][dL][dL][dD][dW][dC]G[dT]G[dD][dD]-NH2
modifications: disulfide 6-17; also: cholesterol conjugate, trimer
For the molecule B5, the IC50, syncytia reduction assay in experiment [3] is 24 nM and 8 nM.

B6: Chol-Ac-K(PEG6)-RSVP20-trimer (peptide)
peptide: Ac-[dK][PEG6′]G[dA][dC][dR][dN][dE][dP][dH][dW][dL][dL][dD][dW][dC][dA][dA]-NH2
modifications: disulfide 5-16; also: cholesterol (Chol) conjugate, site not given here, trimer
The molecule B6 returned an IC50, syncytia reduction assay in experiment [3] of 7900 nM.

B7: Chol-Ac-K(PEG6)DDG-RSVP29-trimer (peptide)
peptide: Ac-[dK][PEG6′][dD][dD]G[dS][dA][dC][dV][dN][dR][dP][dE][dW][dL][dL][dD][dW][dC]G[dT]-NH2
modifications: disulfide 8-19; also: cholesterol conjugate, trimer
For B7, the IC50, syncytia reduction assay in experiment [3] is 120 nM and 100 nM.

B8: RSVP32 with shortened disulfide (peptide)
peptide: GEVCRPEWLLDWCGT
modifications: D-peptide; N-terminal acetyl; C-terminal amide
In experiment [3], B8 returned a potency of 360 nM and a potency, fold decrease compared to RSVP32 of 14.4 fold.

B9: KKGAAAA-RSVP7-G(PEG6)-Tricasso (peptide)
peptide: KKGAAAARWFELPEPEWWG
modifications: not fully specified; all D-amino acids; C-terminal PEG6 joined to the hub
In the case of B9, the IC50, syncytia reduction assay in experiment [3] is 13900 nM and 7400 nM.

B10: Ac-K(PEG6)G-RSVP26-GRR-trimer (peptide)
peptide: Ac-[dK][PEG6′]G[dH][dA][dC][dV][dN][dR][dP][dE][dW][dL][dL][dD][dW][dC]G[dR]G[dR][dR]-NH2
modifications: disulfide 6-17; also: trimer, linkage not given here
Turning to B10, the IC50, syncytia reduction assay in experiment [3] worked out at 5500 nM.

B11: Chol-Ac-K(PEG6)G-RSVP26-GRR-trimer (peptide)
peptide: Ac-[dK][PEG6′]G[dH][dA][dC][dV][dN][dR][dP][dE][dW][dL][dL][dD][dW][dC]G[dR]G[dR][dR]-NH2
modifications: disulfide 6-17; also: cholesterol conjugate, trimer
Consider B11, for which the IC50, syncytia reduction assay in experiment [3] came out at 490 nM.

B12: Chol-Ac-K(PEG6)DDG-RSVP26-trimer (peptide)
peptide: Ac-[dK][PEG6′][dD][dD]G[dH][dA][dC][dV][dN][dR][dP][dE][dW][dL][dL][dD][dW][dC]G[dR]-NH2
modifications: disulfide 8-19; also: cholesterol (Chol) conjugate, site not given here, trimer
Turning to B12, the IC50, syncytia reduction assay in experiment [3] came out at 3200 nM.

B13: Ac-K(PEG6)-RSVP20-trimer (peptide)
peptide: Ac-KG[dA][dC][dR][dN][dE][dP][dH][dW][dL][dL][dD][dW][dC][dA][dA]-NH2
modifications: disulfide 4-15 (inferred); not fully specified (residue 1); printed as Ac-K(PEG6)-RSVP20-trimer; also: PEG6 after N-terminal K (side chain or backbone unclear), trimer
B13: the “IC50, syncytia reduction assay” value with RSV F protein (RSV-A) was 55000 nM and 19000 nM.

B14: KG-RSVP7-G(PEG6)-Tricasso (peptide)
peptide: [dK]G[dR][dW][dF][dE][dL][dP][dE][dP][dE][dW][dW]G
modifications: not fully specified (C-terminus); printed as KG-RSVP7-G(PEG6)-Tricasso
For the molecule B14, in the experiment with RSV F protein (RSV-A), the “IC50, syncytia reduction assay” value was 18400 nM.

B15: Chol-Ac-RSVP24-GDD(PEG6)K-trimer (peptide)
peptide: Ac-[dS][dM][dC][dV][dN][dR][dP][dE][dW][dL][dL][dD][dW][dC]G[dT]G[dD][dD][PEG6′][dK]-NH2
modifications: disulfide 3-14; also: cholesterol conjugate, trimer
The molecule B15 showed an IC50, syncytia reduction assay in experiment [3] of 97 nM.

B16: Ac-K(PEG6)-RSVP21-trimer (peptide)
peptide: Ac-KG[dA][dC][dT][dN][dR][dA][dE][dW][dL][dI][dD][dW][dC][dA][dA]-NH2
modifications: disulfide 4-15 (inferred); not fully specified (residue 1); printed as Ac-K(PEG6)-RSVP21-trimer; also: PEG6 after N-terminal K (side chain or backbone unclear), trimer
Take B16: the “IC50, syncytia reduction assay” value with RSV F protein (RSV-A) was found to be 65000 nM.

B17: X12-47 phage clone (peptide)
peptide: SKVILPEPFWWP
B17: the binding result in experiment [4] is “no binding”.

B18: Chol-Ac-RSVP32-GDD(PEG4)K-trimer (peptide)
peptide: Ac-G[dE][dC][dV][dN][dR][dP][dE][dW][dL][dL][dD][dW][dC]G[dT]G[dD][dD][PEG4′][dK]-NH2
modifications: disulfide 3-14; also: cholesterol conjugate, trimer
B18: in experiment [3], the IC50, syncytia reduction assay was 37 nM and 52 nM and 95 nM.

B19: X16-18 phage clone (peptide)
peptide: SLKYWWMEELPLPKWW
As for B19, the binding result (in experiment [4]; with IZN45_WT_Bot) was “no binding” in each case.

B20: Ac-RSVP24-GDD(PEG6)K-trimer (peptide)
peptide: Ac-[dS][dM][dC][dV][dN][dR][dP][dE][dW][dL][dL][dD][dW][dC]G[dT]G[dD][dD][PEG6′][dK]-NH2
modifications: disulfide 3-14; also: trimer, linkage not given here
Molecule B20 registered an IC50, syncytia reduction assay in experiment [3] of 4600 nM.

B21: Chol-Ac-K(PEG6)DDG-RSVP27-trimer (peptide)
peptide: Ac-[dK][PEG6′][dD][dD]G[dH][dE][dC][dV][dN][dR][dP][dE][dW][dL][dL][dD][dW][dC][dE][dH]-NH2
modifications: disulfide 8-19; also: cholesterol conjugate, trimer
Regarding B21, the IC50, syncytia reduction assay in experiment [3] is 140 nM and 90 nM and 88 nM.

B22: KKG-RSVP7-G(PEG6)-Tricasso (peptide)
peptide: KKGRWFELPEPEWWG
modifications: not fully specified; all D-amino acids; C-terminal PEG6 joined to the hub
As for B22, in the experiment with RSV F protein (RSV-A), the “IC50, syncytia reduction assay” value is 4800 nM and 4500 nM.

B23: T118 (peptide)
peptide: FDASISQVNEKINQSLAFIRKSDELLHNVNAGKST
notes: also called RSV C-peptide T118
B23: the binding result in experiment [1] is on record as “no binding”. This molecule also returned a Kd in the experiment with BPEG2-GKG-RSVB-IZN45 of around 1 nM.

B24: CX10C-119 phage clone (peptide)
peptide: GACKIHDLFHWHDCAA
modifications: disulfide (positions not given here); not fully specified (bridges)
notes: also called CXC10C-119
As for B24, the binding result in experiment [4] is reported as “no binding”.

B25: RSVP32 with Gln at position 6 (peptide)
peptide: GECVNQPEWLLDWCGT
modifications: D-peptide; N-terminal acetyl; C-terminal amide
As for B25, in experiment [3], the potency worked out at 53 nM and the potency, fold decrease compared to RSVP32 stood at 2 fold.

B26: Ac-K(PEG6)DDG-RSVP24-trimer (peptide)
peptide: Ac-[dK][PEG6′][dD][dD]G[dS][dM][dC][dV][dN][dR][dP][dE][dW][dL][dL][dD][dW][dC]G[dT]-NH2
modifications: disulfide 8-19; also: trimer, linkage not given here
For B26, the IC50, syncytia reduction assay in experiment [3] was 5500 nM.

B27: Ac-KG-RSVP20 (peptide)
peptide: Ac-[dK]GG[dA][dC][dR][dN][dE][dP][dH][dW][dL][dL][dD][dW][dC][dA][dA]-NH2
modifications: disulfide 5-16
SMILES: CC(=O)N[C@H](CCCCN)C(=O)NCC(=O)NCC(=O)N[C@H](C)C(=O)N[C@@H]1CSSC[C@H](C(=O)N[C@H](C)C(=O)N[C@H](C)C(N)=O)NC(=O)[C@@H](Cc2c[nH]c3ccccc23)NC(=O)[C@@H](CC(=O)O)NC(=O)[C@@H](CC(C)C)NC(=O)[C@@H](CC(C)C)NC(=O)[C@@H](Cc2c[nH]c3ccccc23)NC(=O)[C@@H](Cc2c[nH]cn2)NC(=O)[C@H]2CCCN2C(=O)[C@@H](CCC(=O)O)NC(=O)[C@@H](CC(N)=O)NC(=O)[C@@H](CCCNC(=N)N)NC1=O
Regarding B27, the IC50, syncytia reduction assay in experiment [3] came out at 673000 nM.

B28: Chol-Ac-K(PEG4)DDG-RSVP32-trimer (peptide)
peptide: Ac-[dK][PEG4′][dD][dD]GG[dE][dC][dV][dN][dR][dP][dE][dW][dL][dL][dD][dW][dC]G[dT]-NH2
modifications: disulfide 8-19; also: Chol, attachment not given here, trimer, linkage not given here
For B28, the IC50, syncytia reduction assay in experiment [3] was 28 nM and 16 nM and 11 nM.
